Measurements: article PMC7235047

Target: γH2AX, P16104
Assay: proximity ligation assay (PLA)
Conditions: chain shown with the change, U2OS cells transfected with GFP-RNF168 wildtype and mutants, antibodies against GFP and γH2AX, 75 (wildtype), parent: est. 43, read off a plot

Binder | response (n = 53 cells (R57D/Δ143-144)) | response (n = 74 cells (Δ143-144))
GFP-RNF168 wildtype, Q8IYW5 R57D; E143del; E144del (protein) MALPKDAIPSLSECQCGICMEILVEPVTLPCNHTLCKPCFQSTVEKASLCCPFCRRDVSSWTRYHTRRNSLVNVELWTIIQKHYPRECKLRASGQESEEVADDYQPVRLLSKPGELRREYEEEISKVAAERRASEEEENKASYIQRLLAEEEEEEKRQAEKRRRAMEEQLKSDEELARKLSIDINNFCEGSISASPLNSRKSDPVTPKSEKKSKNKQRNTGDIQKYLTPKSQFGSASHSEAVQEVRKDSVSKDIDSSDRKSPTGQDTEIEDMPTLSPQISLGVGEQGADSSIESPMPWLCACGAEWYHEGNVKTRPSNHGKELCVLSHERPKTRVPYSKETAVMPCGRTESGCAPTSGVTQTNGNNTGETENEESCLLISKEISKRKNQESSFEAVKDPCFSAKRRKVSPESSPDQEETEINFTQKLIDLEHLLFERHKQEEQDRLLALQLQKEVDKEQMVPNRQKGSPDEYHLRATSSPPDKVLNGQRKNPKDGNFKRQTHTKHPTPERGSRDKNRQVSLKMQLKQSVNRRKMPNSTRDHCKVSKSAHSLQPSISQKSVFQMFQRCTK | 11 | 
GFP-RNF168 wildtype, Q8IYW5 E143del; E144del (protein) MALPKDAIPSLSECQCGICMEILVEPVTLPCNHTLCKPCFQSTVEKASLCCPFCRRRVSSWTRYHTRRNSLVNVELWTIIQKHYPRECKLRASGQESEEVADDYQPVRLLSKPGELRREYEEEISKVAAERRASEEEENKASYIQRLLAEEEEEEKRQAEKRRRAMEEQLKSDEELARKLSIDINNFCEGSISASPLNSRKSDPVTPKSEKKSKNKQRNTGDIQKYLTPKSQFGSASHSEAVQEVRKDSVSKDIDSSDRKSPTGQDTEIEDMPTLSPQISLGVGEQGADSSIESPMPWLCACGAEWYHEGNVKTRPSNHGKELCVLSHERPKTRVPYSKETAVMPCGRTESGCAPTSGVTQTNGNNTGETENEESCLLISKEISKRKNQESSFEAVKDPCFSAKRRKVSPESSPDQEETEINFTQKLIDLEHLLFERHKQEEQDRLLALQLQKEVDKEQMVPNRQKGSPDEYHLRATSSPPDKVLNGQRKNPKDGNFKRQTHTKHPTPERGSRDKNRQVSLKMQLKQSVNRRKMPNSTRDHCKVSKSAHSLQPSISQKSVFQMFQRCTK |  | 34
